Reference: paper PMC7851562 (2020)

T1: coxsackievirus and adenovirus receptor (CAR), as used in SPR (UniProt P78310 20-365)
T1 chain: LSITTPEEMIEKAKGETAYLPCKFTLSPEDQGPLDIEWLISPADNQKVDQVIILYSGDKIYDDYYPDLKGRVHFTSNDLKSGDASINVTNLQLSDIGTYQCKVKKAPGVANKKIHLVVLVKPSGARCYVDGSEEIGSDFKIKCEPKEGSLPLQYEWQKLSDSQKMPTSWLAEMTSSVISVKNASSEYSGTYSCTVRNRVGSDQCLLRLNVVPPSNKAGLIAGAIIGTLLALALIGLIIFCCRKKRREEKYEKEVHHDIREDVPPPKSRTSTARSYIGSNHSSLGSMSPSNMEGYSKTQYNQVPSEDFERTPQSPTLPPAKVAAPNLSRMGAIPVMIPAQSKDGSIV

B1: human adenovirus type 49 fiber knob protein (domain or fragment)
chain: MRGSHHHHHHGSKKGDLVAWNKENDRRTLWTTPDPSPNCKVSEEKDSKLTLVLTKCGSQILASVSLLVVKGKFANINNKTNPGEDYKKFSVKLLFDANGKLLTGSSLDGNYWNYKNKDSVIGSPYENAVPFMPNSTAYPKIINNGTANPEDKKSAAKKTIVTNVYLGGDAAKPVATTISFNKETESNCVYSITFDFAWNKTYKNVPFDSSSLTFSYIAQDAEDKNE

Tests used:
[1] = biological target: coxsackievirus and adenovirus receptor (CAR), as used in SPR (UniProt P78310); test: SPR; recombinant fiber knob protein over receptor; about 5,000 RU of DSG2-Fc amine coupled to a CM5 chip at 10 μl/min; in triplicate; CAR and CD46 surfaces as previously described (ref 36)
[2] = biological target: coxsackievirus and adenovirus receptor (CAR) on CHO-CAR cells (UniProt P78310)
[3] = biological target: T1, coxsackievirus and adenovirus receptor …; test: SPR

| Molecule | Kd [1] | inhibition of HAdV-C5 transduction (luciferase) of CHO-CAR cells preincubated with recombinant HAdV-D49K [2] | koff [3] |
| --- | --- | --- | --- |
| human adenovirus type 49 fiber knob protein (domain or fragment) | 190 nM | 50% |  |
| B1 |  |  | 0.0012 s⁻¹ |
